# Test: yeast display, Sf9 membrane polyspecificity reagent, FACS + sequencing; frameworks hold sequencing errors
# Procedure, shortened: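 Synthetic nanobody libraries on Saccharomyces cerevisiae BJ5465 were galactose-induced for 36–48 hours, stained 1 hour at 4 °C with 10% biotinylated, detergent-solubilized Sf9 membrane reagent and enriched on streptavidin microbeads. FACS then separated cells into low and high (top ~1%) gates by anti-HA (expression) and streptavidin (reagent binding) fluorescence. Genes were colony-PCR amplified, MiSeq 2 × 250 sequenced and CDR-length filtered. A clone's polyreactivity label is that of its gate of origin.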
row,Sequence,polyreactivity (PSR sort gate)
1,QVQLVESAGGIVQAGGSLRLSCAASGFTFSRYAKGWNRPEPGKEREWVAAMTSSGGSTYYADSVKGRFTISRDNAKNTVYLQMNSLKPEDTAVYYCNARASGRTYRVDYWGQGTQVTVSS,high polyreactivity
2,QVQLVESAGGLDQARGSLRLSCAASGFTFIRYAMGWYRQAPGKESELVATITRSGGSTYYADSVKGRFTISRDNAKNTVYLQMNSLKPEDTAVYYCAKRGTLGSYYYWGQGTQVTVSS,high polyreactivity
3,QVQLVESAGGLLQAGGTLRLICAASGRIFTNYAMGWYRQAPGKERELVAAINWSGSRTFYADSVMGRFTISRDNAKYTVYLQLNSLKPEDTAVYSCAADALRKPKIALYDYWGQGTQVTVSS,high polyreactivity
4,QVQLVESAGGLVHAGGSLRLSCAASGFIFWYYAMGWDRQSPGKERELVASISRGGDSTYYADSVKGRFTISRDNAKNTVYVQMNSLKPVDTAVYYCNARGRYRKSERRAFDYWGQGTQVTVSS,high polyreactivity
5,QVQLVESAGGLVHAGGSLRLSCAASGFNFGFNAMGWDRQAPGKERELVAVISARGGRTYYADSVKGRFTISRDNAKNSVYLQMNSLKPEDSAVYYSAADDFFRYFFTHWVGDDYWGQGTQVSVSS,low polyreactivity
6,QVQLVESAGGLVHAGGSLRLSCADSGSTIGDNAMGWYRQAPGKEREFVASISWSGASTYYADSVKGRFTISRDNAKNTVYLQMNSLKPEDTAVYFCAVYYSYYSHLYHLLFYYWGQATQVTVSS,low polyreactivity
7,QVQLVESAGGLVHAGGSLSLSCAASAILGNNAMGWYRQAPRKQRELVAAISARGGRTYYADSVKGRFTISRDNAKNTVYLQMNSLKPEDTAVYYCATLETSGVNYWGQGTQVTVSS,high polyreactivity
8,QVQLVESAGGLVQAGASLRLSCAASGRIFVRNAMGWYRQAPGKEREMVADITNGGSTNYADSVKGRFTISRDNAKNTVYLQKNRLNPEDTAVYYCNADGFVYDLRARPGWVDYWGQGTQVTVSS,low polyreactivity
9,QVQLVESAGGLVQAGGILRLSCAASGSIFVGYDMGWSRQAPGKERELVAAITSSGGGSTYYADSVKGRFTISRDNAKNTVYLQMNSLKPEDTAVYYCAARTSLWWFLKYDYWGQGTQVTVSS,low polyreactivity
10,QVQLVESAGGLVQAGGRLRLSCAASGFTFVYYVMGWYRQAPGKERELVAAISNSGGSTYYADSVKGRFTISRDNAKNSVYLEMNSLKPEDTAVYYCAAPPGGGKYRGYYYWGQGTQVTVSS,high polyreactivity
11,QVQLVESAGGLVQAGGRLRLSCAASGITISYYAMGWYRQAPGKERELVASISWRGGGTYYADSVKGRFTISRDNAKNTVYLQMNSVKPEDTAVYYCAADEKLYITRYDYWGQGTQVTVSS,low polyreactivity
12,QVQLVESAGGLVQAGGRLRLSCAASGRTFTYYAMGWYRQAPGKERELVAAISFSGGRTYYADSVKGRFTISRDYAKNTVYLQMNSLKPEDTAVYYCAAENYYTRYRDRDYWGQGTQVTVSS,high polyreactivity
13,QVQLVESAGGLVQAGGRLRVSCAASGFIFLYYPMGWYRKAPGKEREFVAAISWSDGNTYYADSVKGRFTISRDTAKNTDYLQMNSLKREDTAVYYCNARDADAWASGYDYWGQGTQLTVSS,low polyreactivity
14,QVQLVESAGGLVQAGGSHRLSCAASASIFDGYAMGWYRQAPGKEREVVAAIRRSGVDTYYADSVKGRFTISRDNAKTTVYLQMNSLKPEDTAVDYCAADSYPSPNFEDNYWRQGTQVTVSS,low polyreactivity
15,QVQLVESAGGLVQAGGSHRLSCAPSGRIFGGNAMGWYRRAPGKERELVAGISRRGGSTYYADSVKGRFTITRDNAKNTVHLQMNSLKPEDTAVYYCNAYYRYSVFAEKYDYWGEGTQVTVSS,high polyreactivity
16,QVQLVESAGGLVQAGGSLRIRCAASVSTFGVYALGWYRQAPGKERELVAAISSSTGSTYYADSVKGRFTISRDNAKNTVYLQMNSLKPEDTGVYYCAAAGYGKVRGDYWGLGTQVTVSS,low polyreactivity

row,Sequence,polyreactivity (PSR sort gate)
1,QVQLVESAGGLVQAGGSLRISCAASGSIFYYYAMGWYRQAPGKERELLAAIDSGGSTYYADSVKGRFTISRDNAKNTVYLQMNSLKPEDTAVYYCAADTYWFVYYGYDYWGQGTQVTVSS,low polyreactivity
2,QVQLVESAGGLVQAGGSLRLMCAASGNTLSWYALGWYRQAPGKERELVAVITSGGSTNYADSVKGRFTISRDYAKNTVYLQMNSLKPEDTAVYYCNRRPYGFDEFDYWGQGTQVTVSS,low polyreactivity
3,QVQLVESAGGLVQAGGSLRLSCAASAFTFFDYVMGWYRQAPGKERELVAAISRNVGSTYYADSVKGRFTISRDNAKNTVYLQMNSLKPEDTAVYYCAGEPPPYEYDYWGQGTQVTVSS,high polyreactivity
4,QVQLVESAGGLVQAGGSLRLSCAASAFTFRWYDMGWYRQAPGKERELVAAIDASDGSTYYSDSVKGSFTISRDNPKNTVYLPMNSLKPEDTAVYYCATRLRGGGKGYYYWGQGTQVTVSS,high polyreactivity
5,QVQLVESAGGLVQAGGSLRLSCAASGFIFVRNAMGWYRPAPGKVRELVAAISRSGGRTYNADSVKGRFTISRDNAKNTVYLQMNSLKPEDTAVYYCAARSGYFRSRFDYWGQGTQVTVSS,high polyreactivity
6,QVQLVESAGGLVQAGGSLRLSCAASGFTFKSNAMGWYRQAPGKEREMVAAIDSRGDRTYYADSVKGRFTISRDNAKNTVYLQMNSLKPEDTAVYYCATKWRTYWSSGEYWGQGTQVTVSS,high polyreactivity
7,QVQLVESAGGLVQAGGSLRLSCAASGFTFLYYAMGWYRKAPGKEREFVAAISYTGGSTYYADSVKGRFTISRDNAKNTVYLQMNSLKPEDTAVYYCAVDGYYWFGSIFDYWGQGTQVTVSS,low polyreactivity
8,QVQLVESAGGLVQAGGSLRLSCAASGITFAWYAMGWYRQAPGKERELVAAITRGGGSTYYADSVKGRFTISRDNAKNTVYLQMNSLKPEATAVYYCAARPYSYPYGYWGQGTQVTVSS,low polyreactivity
9,QVQLVESAGGLVQAGGSLRLSCAASGITFKYNAMGWYRQAPGKERELVAAISKGGGSTYYADSVKGRFTISRDNAKNTVYLQMNSLKPEDTAVYYCAARRWYRFDYWGQGTQVTVSS,high polyreactivity
10,QVQLVESAGGLVQAGGSLRLSCAASGITFSYYTMGWYRQAPGKEREFVATIRRGGSTNYADSVKGRFTISRDNAKNTVYLQMNSLKPEDTAVYYCAADLRRNGWGFDYWGQGTQVTVSS,high polyreactivity
11,QVQLVESAGGLVQAGGSLRLSCAASGITFYEYVMGWYRQAPGKERELVASIDWSGGGTYYADSVKGRFTISRDNAKNTVYLQMNSLKPEDTAVYYCNADYFDYSRPRYDYWGQGTQVTVSS,low polyreactivity
12,QVQLVESAGGLVQAGGSLRLSCAASGITHHHNAIGWSRQAPRKERELVAAITSNGGSTYYAVSVKGRFTISRDHAKNSVYLQINSLKPEDTAVYYCARDSKRLARYYYWGQGTQVTVSS,low polyreactivity
13,QVQLVESAGGLVQAGGSLRLSCAASGLTFTGNAIGWYRQAPGKERQCVAAIRWSAGSTYYADSVKGRVTISRDNAKNTVYLQMNSLKPEDTAVYYCNAALNVSGHYPNDYWGQGTQVTVSS,low polyreactivity
14,QVQLVESAGGLVQAGGSLRLSCAASGMILWRYSMGWYRKAPGKEMEFVAAISYRAGSTYYADSVKGRFTISRDNAKNTVYLQMNSLKPEDTAVYYCAAGLKRFGSYPWLKSGMGYWGQGTQVTVSS,high polyreactivity
15,QVQLVESAGGLVQAGGSLRLSCAASGNTFANYAMGWDRQAPGKERELVAAITRGGSTFYADSVKGRFTISRDNAKNTVYLQMNSLKPEDSAVYYCAKGYGTNTRYYHRYRYDYWGQGTQVTVSS,high polyreactivity
16,QVQLVESAGGLVQAGGSLRLSCAASGNTFWFYGMGWYRPAPGKVRELVAAITSGGSTDYPDSVKGRCTISRDNAKNTVYLQMNSLKPEDTALYYCAAEPVAYYGSSYGYWGQGTQVTVSS,low polyreactivity
